According to article PMC3166367:
One block for each substance: values may come before it.

Experiments:
[1] = biological target: dimeric (β15-44)2 fragment (β15-42 with Cys43 and Gly44 added, dimerized through Cys43); experiment: ELISA
[2] = biological target: VE-cad(3) fragment (residues Phe210-Phe325), third domain of the extracellular portion of VE-cadherin; experiment: SPR
[3] = biological target: VE-cadherin (Homo sapiens) (UniProt P33151); experiment: SPR; settings: cited from earlier work
Chain of VE-cadherin (Homo sapiens) (P33151 48-599): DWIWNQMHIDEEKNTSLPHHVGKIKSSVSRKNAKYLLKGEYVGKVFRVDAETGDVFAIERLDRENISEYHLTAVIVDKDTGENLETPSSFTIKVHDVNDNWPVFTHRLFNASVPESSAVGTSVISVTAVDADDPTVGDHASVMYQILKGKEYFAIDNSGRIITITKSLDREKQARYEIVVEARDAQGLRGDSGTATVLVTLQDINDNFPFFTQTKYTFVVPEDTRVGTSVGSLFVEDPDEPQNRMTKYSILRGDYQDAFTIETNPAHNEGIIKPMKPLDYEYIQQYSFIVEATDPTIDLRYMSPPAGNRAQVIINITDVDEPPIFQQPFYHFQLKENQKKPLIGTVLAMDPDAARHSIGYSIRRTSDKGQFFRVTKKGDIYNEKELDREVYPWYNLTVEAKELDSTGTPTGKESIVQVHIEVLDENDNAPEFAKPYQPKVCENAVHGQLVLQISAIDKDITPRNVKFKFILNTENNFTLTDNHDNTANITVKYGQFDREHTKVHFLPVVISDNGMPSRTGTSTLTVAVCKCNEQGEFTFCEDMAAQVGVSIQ

Kd [1]: 146 nM
Substance: VE-cad(3) fragment (residues Phe210-Phe325), third domain of the extracellular portion of VE-cadherin (domain or fragment)

Kd [2]: 715 nM
Substance: dimeric (β15-44)2 fragment (β15-42 with Cys43 and Gly44 added, dimerized through Cys43) (peptide)

Substance: fibrin fragment (β15-66)2 15-66 (from UniProt P02675)
Kd [3]: 80 nM
